Measurements from paper PMC5956896.

Experiments:
Assay in all cases: pull-down
ITK PHTH L51D = target: ITK PHTH L51D
[1] = target: His6-GB1 tagged ITK PHTH (C96E/T110I) domain
ITK PHTH E56A = target: ITK PHTH E56A

decrease in binding compared to wild type ITK PHTH (ITK PHTH L51D): 50% | disruption of the interaction by 5 μM IP(1,3,4,5)P4 [1]: > 50% | decrease in binding compared to wild type ITK PHTH (ITK PHTH E56A): 50%
Substance: His6 tagged mouse ITK kinase domain (residues 356-619) (domain or fragment)
